Molecular target: the molecule itself
Experiment: native gel or EMSA

B1: scavenger receptor class BI (SR-BI) (receptor)
chain: MGGSSRARWVALGLGALGLLFAALGVVMILMVPSLIKQQVLKNVRIDPSSLSFGMWKEIPVPFYLSVYFFEVVNPNEVLNGQKPVVRERGPYVYREFRQKVNITFNDNDTVSFVENRSLHFQPDKSHGSESDYIVLPNILVLGGSILMESKPVSLKLMMTLALVTMGQRAFMNRTVGEILWGYDDPFVHFLNTYLPDMLPIKGKFGLFVGMNNSNSGVFTVFTGVQNFSRIHLVDKWNGLSKIDYWHSEQCNMINGTSGQMWAPFMTPESSLEFFSPEACRSMKLTYNESRVFEGIPTYRFTAPDTLFANGSVYPPNEGFCPCRESGIQNVSTCRFGAPLFLSHPHFYNADPVLSEAVLGLNPNPKEHSLFLDIHPVTGIPMNCSVKMQLSLYIKSVKGIGQTGKIEPVVLPLLWFEQSGAMGGKPLSTFYTQLVLMPQVLHYAQYVLLGLGGLLLLVPIICQLRSQEKCFLFWSGSKKGSQDKEAIQAYSESLMSPAAKGTVLQEAKL
stoichiometry N: 2

From paper doi:10.1101/298208 (bioRxiv, 2018)
